Source: patent US20130109048A1, “METHOD FOR IN-VITRO MONITORING OF NEURONAL DISORDERS AND USE THEREOF” (ECOLE POLYTECHNIQUE FEDERALE DE LAUSANNE (EPFL), priority 2010, published 2013)
“Also recorded” adds a separate entry of the source.

B1: BDNF: recombinant human brain-derived neurotrophic factor (R&D Systems) (protein, UniProt P23560 19-247, looked up)
Neurotrophic factor BDNF …: APMKEANIRGQGGLAYPGVRTHGTLESVNGPKAGSRGLTSLADTFEHVIEELLDEDQKVRPNEENNKDADLYTSRVMLSSQVPLEPPLLFLLEEYKNYLDAANMSMRVRRHSDPARRGELSVCDSISEWVTAADKKTAVDMSGGTVTVLEKVPVSKGQLKQYFYETKCNPMGYTKEGCRGIDKRHWNSQCRTTQSYVRALTMDSKKRIGWRFIRIDTSCVCTLTIKRGR

Columns and labels:
[1] = tested on: rat primary cortical neurons; assay: MEA recording of spontaneous electrical activity (population bursts), TrkB inhibitor experiments; format: cell-based; details: K252a 10 nM or 100 nM; 30 min recordings 45 min and 24 h after addition; cultures at 14-15 DIV
Procedure: Cortical cells were prepared and cultured as described previously (Van Pelt et al., 2004, IEEE Trans. Biomed. Eng., 51: 2051-2062). Cells were plated on multielectrode arrays (MEAs) and/or culture dishes, with prior surface coating by polyethylenimine (10 mg/ml, Fluka) and laminin (0.02 mg/ml, Gibco) in Neurobasal medium (MEAs) or poly-L-lysine (0.01%) in water (culture dishes), respectively, which allow the cells to readily attach to the surface and extend neurites. Plating density was 1′500 cells/mm^2 for MEAs, allowing for quick network formation and high multichannel electrophysiological recordings efficiency. A lower density of 500 cells/mm^2 was used for culture dishes, to facilitate cell counting and morphological analysis. […]
After 5 min of accommodation time following the mounting of each MEA inside the recording setup, spontaneous electrical activity from the cultured neurons was detected, amplified, and recorded at each of the 60 substrate extracellular electrodes simultaneously for 30 min at 20 kHz/channel. Recorded traces consisted in electric voltage signals whose sudden small large amplitude fluctuations are known to be produced by the nerve impulse discharges emitted by neurons growing in close proximity to the substrate electrodes that detect them extracellularly, directly related to the firing of action potentials by the neurons in the proximity of each electrode. […]

[2] = tested on: rat primary cortical neurons; assay: Neuronal viability by counts of NeuN-positive nuclei; format: cell-based; details: cultures treated with K252a 10 nM or 100 nM
Procedure: Cultures were washed with PBS and fixed in 4% paraformaldehyde (Fluka/Sigma, Buchs, Switzerland) or in methanol (Merck, Germany) for PSD95 (Post-synaptic density protein of 95 kDa) staining for 10 min at 4° C. Cultures were incubated with NeuN antibody which reacts with fox-3 (1:500, Chemicon, Temecula, Calif.) or 2B4 antibody which reacts with huntingtin (1:500 Millipore, Zug, Switzerland), antibody which reacts with postsynaptic density protein of 95 kDa (PSD95) (Sans et al., 2000, J. Neurosci. 20:1260-71) (1:200, Affinity Bioreagents, Golden, Colo.) and antibody which reacts neuronal class III beta-tubulin Tuj1 (Jepsen et al., 2000, Cell 102(6): 753-763) (1:2000, Covance, Emerville, Calif.) in PBS containing 10% normal goat serum (NGS, Gibco, Invitrogen, Basel, Switzerland) and 0.1% Triton X-100 (TX, Fluka, Sigma, Buchs, Switzerland). Cultures were rinsed three times in PBS and then incubated for 1 hour with fluorescent goat anti-mouse secondary antibodies (for NeuN: 1:1000 Cy3-conjugated antibody from Jackson Immunoresearch Laboratories, WestGrove, Pa.; for 2B4: 1:1000 Alexa Fluor® 488-conjugated antibodies from Invitrogen, Basel, Switzerland, for Tuj1: 1:1000 Alexa Fluor® 594-conjugated antibody from Invitorgen, Basel, Switzerland). Where indicated, cultures were stained with Hoechst 33342 dye (Invitrogen, Basel, Switzerland). […]

[3] = tested on: htt171-82Q-expressing cortical cells; assay: Counting of PSD95-positive plasma membrane subdomains (punctae) by immunostaining; format: cell-based, rat; details: BDNF 50 ng/ml added twice weekly; htt171-82Q cells
Procedure: Cultures were washed with PBS and fixed in 4% paraformaldehyde (Fluka/Sigma, Buchs, Switzerland) or in methanol (Merck, Germany) for PSD95 (Post-synaptic density protein of 95 kDa) staining for 10 min at 4° C. Cultures were incubated with NeuN antibody which reacts with fox-3 (1:500, Chemicon, Temecula, Calif.) or 2B4 antibody which reacts with huntingtin (1:500 Millipore, Zug, Switzerland), antibody which reacts with postsynaptic density protein of 95 kDa (PSD95) (Sans et al., 2000, J. Neurosci. 20:1260-71) (1:200, Affinity Bioreagents, Golden, Colo.) and antibody which reacts neuronal class III beta-tubulin Tuj1 (Jepsen et al., 2000, Cell 102(6): 753-763) (1:2000, Covance, Emerville, Calif.) in PBS containing 10% normal goat serum (NGS, Gibco, Invitrogen, Basel, Switzerland) and 0.1% Triton X-100 (TX, Fluka, Sigma, Buchs, Switzerland). […]
The synaptic status was investigated in htt171-82Q- and htt171-18Q-expressing cells. Numbers of PSD95-positive structures was quantified as described above as an indicator of postsynaptic specializations, which comprise zones where neurotransmitter receptors, particularly glutamate receptors, are clustered.

[4] = tested on: htt171-82Q-expressing cortical cells; assay: MEA recording of spontaneous electrical activity in Huntington's disease cell model with BDNF; format: cell-based, rat; details: BDNF 50 ng/ml added twice weekly
Source text: Cells modeling in-vitro HD-related cortical dysfunction were engineered for use in a method according to the invention for showing that the effects of molecular changes on synaptic changes in cortical microcircuits exposed to mutant htt fragments could be measured by a method according to the invention. To this end, cortical cells E16-E19 Wistar rat embryos (Charles River, France) were engineered by lentiviral gene transfer using Human Immunodeficiency Virus Type 1 (HIV-1)-derived vectors to express the first 171 amino acids of normal or mutated htt under the control of a tetracycline response element-containing promoter as described in Rudinskiy et al., 2009, J. Neurochem., 111: 460-472 (FIGS. 1A,B) to achieve high transduction efficiency and high levels of transgene expression in rat primary cortical neurons following the protocol below.
Plasmids encoding the first 171 amino acids of mutated htt (htt171-82Q) (FIG. 6, SEQ ID NO: 14) or wild-type htt (htt171-18Q) (FIG. 6, SEQ ID NO: 15) under the control of a tetracycline-regulated element promoter, or the tetracycline-regulatable transactivator (tTA1) under the control of a phosphoglycerate kinase promoter were used to prepare self-inactivating lentiviral vectors (FIG. 1A) as described previously (Regulier et al., 2003, Hum. Mol. Genet., 12: 2827-2836). Lentiviral particles were re-suspended in phosphate-buffered saline (PBS)+1% bovine serum albumin and the particle content of viral batches was assessed by p24 ELISA (RETROtek, Gentaur, Paris, France) (Viral titering involves capture of p24 viral protein from the sample on a microtiter plate and detection with a second anti-p24 antibody and visualization via a colorimeteric horseradish-generated product detected at 450 nm) Cells were plated as described below. On the day following cell plating, cultures were infected with lentiviruses at ratios of 150 ng p24/1000 cells (tTA1) and 120 ng p24/1000 cells (htt171-82Q or htt171-18Q) (FIG. 1B).
Cortical cells were prepared and cultured as described previously (Van Pelt et al., 2004, IEEE Trans. Biomed. Eng., 51: 2051-2062). Cells were plated on multielectrode arrays (MEAs) and/or culture dishes, with prior surface coating by polyethylenimine (10 mg/ml, Fluka) and laminin (0.02 mg/ml, Gibco) in Neurobasal medium (MEAs) or poly-L-lysine (0.01%) in water (culture dishes), respectively, which allow the cells to readily attach to the surface and extend neurites. Plating density was 1′500 cells/mm^2 for MEAs, allowing for quick network formation and high multichannel electrophysiological recordings efficiency. A lower density of 500 cells/mm^2 was used for culture dishes, to facilitate cell counting and morphological analysis. Medium containing Neurobasal, 2% B-27 supplement (GIBCO, Invitrogen Corporation, ref 17504) and 10% horse serum (from GIBCO, Invitrogen Corporation, ref. 16050-130) was changed three times per week by removing 0.7 ml and adding 1 ml of fresh medium. Where indicated, recombinant human BDNF (R&D Systems, Minneapolis, Minn., USA) at a concentration of 50 ng/ml was added to the medium twice a week starting from in vitro day 4.
Commercial MEAs with planar TiN substrate electrodes (MultichannelSystems, Reutlingen, Germany) such as described in Potter and De Marse, 2001, above were employed for recording over long-term experiments the spontaneous electrical activity of mammalian neurons, maintained under healthy conditions ex-vivo. […]

[5] = compared to non-BDNF-treated htt171-82Q sister cultures, 23 days in vitro

Molecule	PB (population burst) firing [1]	neuronal viability (NeuN counts) [2]	PSD95-positive bouton-like plasma membrane subdomains (punctae) [3]	PB frequencies [4, 5]	inter-burst intervals (IBIs) [4, 5]	PB duration distribution ([4]; htt171-82Q cells)	size of individual PBs (numbers of individual action potentials) ([4]; htt171-82Q cells)	number of total spikes ([4]; htt171-82Q cells, 30 min recording)
COC(=O)[C@@]1(O)C[C@H]2O[C@]1(C)n1c3ccccc3c3c4c(c5c6ccccc6n2c5c31)C(=O)NC4 [TrkB inhibitor, K252a]	dose- and time-dependent loss of PB firing	without influencing neuronal viability	–	–	–	–	–	–
B1	–	–	increase PSD95-positive boutons; also recorded: reversed by BDNF treatment	significantly increased PB frequencies	decreased IBIs	extended to both the IBI and duration distributions	did not completely restore the size of individual PBs	number of total spikes remained lower
